Measurements from article PMC5499551.
Like-named read-outs stand apart in the source and are kept apart here.

Key:
Assay in all cases: EMSA
SOX9 [1] = biological target: T1, SOX9 (UniProt P48436 1-509)
GATA4 = GATA4 (mouse, UniProt Q08369 1-441)
DMRT1 = DMRT1 (mouse, UniProt Q9QZ59 1-374)
SOX9 [2] = biological target: T1, SOX9; remark: listed apart in the source

Sequence of DMRT1 (Q9QZ59 whole entry): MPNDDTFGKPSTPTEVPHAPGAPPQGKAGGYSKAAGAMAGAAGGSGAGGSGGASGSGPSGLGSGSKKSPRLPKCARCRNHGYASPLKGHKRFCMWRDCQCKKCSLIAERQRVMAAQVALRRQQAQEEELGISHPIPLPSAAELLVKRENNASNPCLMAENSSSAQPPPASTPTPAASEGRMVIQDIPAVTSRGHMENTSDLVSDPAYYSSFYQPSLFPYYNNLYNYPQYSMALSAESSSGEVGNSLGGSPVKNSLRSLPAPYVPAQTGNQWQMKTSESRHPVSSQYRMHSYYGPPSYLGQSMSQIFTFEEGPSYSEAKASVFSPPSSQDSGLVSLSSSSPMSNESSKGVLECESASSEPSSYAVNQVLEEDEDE
Sequence of GATA4 (Q08369 whole entry): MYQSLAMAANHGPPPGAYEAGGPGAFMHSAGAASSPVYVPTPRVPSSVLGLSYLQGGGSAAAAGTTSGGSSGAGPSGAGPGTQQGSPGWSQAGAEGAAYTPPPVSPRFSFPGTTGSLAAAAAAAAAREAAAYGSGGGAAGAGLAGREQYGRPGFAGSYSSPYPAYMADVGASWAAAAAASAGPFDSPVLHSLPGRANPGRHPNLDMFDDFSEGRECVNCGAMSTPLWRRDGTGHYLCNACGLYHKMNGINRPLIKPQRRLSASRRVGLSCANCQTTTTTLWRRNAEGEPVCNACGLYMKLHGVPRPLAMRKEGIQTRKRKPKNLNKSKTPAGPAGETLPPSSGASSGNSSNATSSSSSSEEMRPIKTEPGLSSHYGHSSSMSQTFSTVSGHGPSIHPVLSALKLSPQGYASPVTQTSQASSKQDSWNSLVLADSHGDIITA
T1 sequence (P48436 whole entry): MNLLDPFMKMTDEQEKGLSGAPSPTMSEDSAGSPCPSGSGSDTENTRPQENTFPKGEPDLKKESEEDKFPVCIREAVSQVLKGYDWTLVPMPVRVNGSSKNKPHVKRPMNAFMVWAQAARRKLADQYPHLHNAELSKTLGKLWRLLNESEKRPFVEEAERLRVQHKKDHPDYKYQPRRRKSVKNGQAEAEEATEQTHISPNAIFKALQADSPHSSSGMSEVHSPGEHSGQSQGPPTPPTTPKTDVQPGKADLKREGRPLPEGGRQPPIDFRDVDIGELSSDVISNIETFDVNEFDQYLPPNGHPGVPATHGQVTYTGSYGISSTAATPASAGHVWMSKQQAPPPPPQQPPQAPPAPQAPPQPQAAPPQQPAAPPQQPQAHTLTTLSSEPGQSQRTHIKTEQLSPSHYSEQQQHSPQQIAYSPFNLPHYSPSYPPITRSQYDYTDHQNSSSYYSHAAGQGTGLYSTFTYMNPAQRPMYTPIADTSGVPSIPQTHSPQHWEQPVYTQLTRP

Binder | binding result (SOX9 [1]) | binding result (GATA4) | binding result (DMRT1) | binding result (SOX9 [2])
Lmo4 (dsDNA) DNA 1: GGCATCTCCCATTATTGTTCCAAATCTCATTTCATTTTGAA DNA 2: TTCAAAATGAAATGAGATTTGGAACAATAATGGGAGATGCC | binds | binds | no binding | 
Lats2 (dsDNA) DNA 1: GGCCGAGCGGGACATTCGCTACATTGTTGGCATTCCACGGGCG DNA 2: CGCCCGTGGAATGCCAACAATGTAGCGAATGTCCCGCTCGGCC |  | no binding | binds | binds
Mrpl45 (dsDNA) DNA 1: GGGTTTTTTTCACCGATTGTAAATAAGGTGTAACAATGTGTTAAGGAACCAGGA DNA 2: TCCTGGTTCCTTAACACATTGTTACACCTTATTTACAATCGGTGAAAAAAACCC | binds | binds | binds | 
